Results published in patent US20210032299A1 (Eli Lilly, published 2021).
Starred links: 1 amine or outer side, 2 acyl side, 3 side chain; linkers in the order of their positions; H or OH if unused. Non-standard residues stand in square brackets, D forms with d. Groups on a side chain read outwards from the residue. No end group written: not given here. *: point of attachment. C20 diacid = O=C(O)CCCCCCCCCCCCCCCCCCC(=O)*; γGlu = O=C(O)[C@H](CCC(=O)[*:2])N[*:1]; 4Pal = N[C@@H](Cc1ccncc1)C(=O)O; αMeL = CC(C)C[C@](C)(N)C(=O)O; AEEA = NCCOCCOCC(=O)O; Aib = CC(C)(N)C(=O)O

Columns and labels:
Assay in all cases: cell-based or functional assay
[1] = biological target: T1, human glucose-dependent insulinotropic peptide receptor (human, UniProt P48546 22-466)
T1 sequence (looked up): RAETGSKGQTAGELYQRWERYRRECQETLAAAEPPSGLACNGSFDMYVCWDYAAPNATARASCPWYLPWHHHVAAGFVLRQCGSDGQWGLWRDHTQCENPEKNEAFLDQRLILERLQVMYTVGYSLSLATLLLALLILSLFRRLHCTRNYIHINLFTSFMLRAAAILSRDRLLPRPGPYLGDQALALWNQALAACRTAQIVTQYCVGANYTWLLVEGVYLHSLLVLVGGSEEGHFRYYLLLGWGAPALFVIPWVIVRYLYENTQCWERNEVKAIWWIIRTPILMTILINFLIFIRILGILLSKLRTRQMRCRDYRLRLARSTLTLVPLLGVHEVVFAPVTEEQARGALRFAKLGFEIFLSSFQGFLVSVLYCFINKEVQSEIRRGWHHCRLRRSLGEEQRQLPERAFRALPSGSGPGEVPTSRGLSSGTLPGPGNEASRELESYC

human GLP-1 receptor = human GLP-1 receptor (human, UniProt P43220 24-463)
human glucagon receptor = human glucagon receptor (human, UniProt P47871 26-477)
Sequence of human glucagon receptor (P47871 26-477): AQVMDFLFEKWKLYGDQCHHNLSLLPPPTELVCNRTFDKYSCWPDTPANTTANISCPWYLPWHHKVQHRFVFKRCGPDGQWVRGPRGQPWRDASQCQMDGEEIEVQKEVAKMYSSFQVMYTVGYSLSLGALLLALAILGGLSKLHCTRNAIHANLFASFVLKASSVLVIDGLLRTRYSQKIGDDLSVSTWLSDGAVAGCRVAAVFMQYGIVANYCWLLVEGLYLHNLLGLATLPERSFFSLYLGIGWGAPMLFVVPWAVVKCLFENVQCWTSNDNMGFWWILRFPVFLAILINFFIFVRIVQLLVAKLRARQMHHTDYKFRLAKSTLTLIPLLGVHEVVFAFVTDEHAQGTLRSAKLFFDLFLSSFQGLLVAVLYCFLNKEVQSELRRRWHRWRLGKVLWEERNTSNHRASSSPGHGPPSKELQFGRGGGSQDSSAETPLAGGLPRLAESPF

Binder	hGIPR cAMP Rel EC50 [1]	hGLP1R cAMP Rel EC50 (human GLP-1 receptor)	hGcgR cAMP Rel EC50 (human glucagon receptor)
Y[Aib]EGTFISDYSI[αMeL]LDKK([AEEA-AEEA-γGlu-C20 diacid])HQ[Aib]DFVE[4Pal]LLEAGPSSGAPPPS-NH2 (N-terminus assumed; SMILES CC[C@H](C)[C@H](NC(=O)[C@H](Cc1ccccc1)NC(=O)[C@@H](NC(=O)CNC(=O)[C@H](CCC(=O)O)NC(=O)C(C)(C)NC(=O)[C@@H](N)Cc1ccc(O)cc1)[C@@H](C)O)C(=O)N[C@@H](CO)C(=O)N[C@@H](CC(=O)O)C(=O)N[C@@H](Cc1ccc(O)cc1)C(=O)N[C@@H](CO)C(=O)N[C@H](C(=O)N[C@@](C)(CC(C)C)C(=O)N[C@@H](CC(C)C)C(=O)N[C@@H](CC(=O)O)C(=O)N[C@@H](CCCCN)C(=O)N[C@@H](CCCCNC(=O)COCCOCCNC(=O)COCCOCCNC(=O)CC[C@H](NC(=O)CCCCCCCCCCCCCCCCCCC(=O)O)C(=O)O)C(=O)N[C@@H](Cc1c[nH]cn1)C(=O)N[C@@H](CCC(N)=O)C(=O)NC(C)(C)C(=O)N[C@@H](CC(=O)O)C(=O)N[C@@H](Cc1ccccc1)C(=O)N[C@H](C(=O)N[C@@H](CCC(=O)O)C(=O)N[C@@H](Cc1ccncc1)C(=O)N[C@@H](CC(C)C)C(=O)N[C@@H](CC(C)C)C(=O)N[C@@H](CCC(=O)O)C(=O)N[C@@H](C)C(=O)NCC(=O)N1CCC[C@H]1C(=O)N[C@@H](CO)C(=O)N[C@@H](CO)C(=O)NCC(=O)N[C@@H](C)C(=O)N1CCC[C@H]1C(=O)N1CCC[C@H]1C(=O)N1CCC[C@H]1C(=O)N[C@@H](CO)C(N)=O)C(C)C)[C@@H](C)CC) [Example 3]	0.0178 nM	> 5000 nM	1250 nM
YAEGTFISDYSIAMDKIHQQDFVNWLLAQKGKKNDWKHNITQ-NH2 (ligand) [GIP(1-42)-NH2]	–	–	> 5000 nM
YXEGTFISDYSILLDKKAQXDFVNWLLAQGPSSGAPPPS (D-Ala2; K17((2-[2-(2-Amino-ethoxy)-ethoxy]-acetyl)2-(γ-Glu)-CO-(CH2)18-CO2H); Aib20; C-terminal amide) [Example 1]	0.0476 nM	> 5000 nM	575 nM
YXEGTFISDYSILLDKKHQXDFVNWLLAQGPSSGAPPPS (D-Ala2; K17((2-[2-(2-Amino-ethoxy)-ethoxy]-acetyl)2-(γ-Glu)-CO-(CH2)18-CO2H); Aib20; C-terminal amide) [Example 9]	0.165 nM	> 100 nM	> 5000 nM
YXEGTFISDYSILLDKKAQXDFVNWLLAQGPSSGAPPPS (D-Ala2; K17((2-[2-(2-Amino-ethoxy)-ethoxy]-acetyl)2-(γ-Glu)-CO-(CH2)16-CO2H); Aib20; C-terminal amide) [Example 2]	0.0123 nM	> 5000 nM	608 nM
Y[Aib]EGTFISDYSILLDKK([AEEA-AEEA-γGlu-C20 diacid])AQ[Aib]DFVNWLLAQGPSSGAPPPS-NH2 (N-terminus assumed; SMILES CC[C@H](C)[C@H](NC(=O)[C@H](CO)NC(=O)[C@H](Cc1ccc(O)cc1)NC(=O)[C@H](CC(=O)O)NC(=O)[C@H](CO)NC(=O)[C@@H](NC(=O)[C@H](Cc1ccccc1)NC(=O)[C@@H](NC(=O)CNC(=O)[C@H](CCC(=O)O)NC(=O)C(C)(C)NC(=O)[C@@H](N)Cc1ccc(O)cc1)[C@@H](C)O)[C@@H](C)CC)C(=O)N[C@@H](CC(C)C)C(=O)N[C@@H](CC(C)C)C(=O)N[C@@H](CC(=O)O)C(=O)N[C@@H](CCCCN)C(=O)N[C@@H](CCCCNC(=O)COCCOCCNC(=O)COCCOCCNC(=O)CC[C@H](NC(=O)CCCCCCCCCCCCCCCCCCC(=O)O)C(=O)O)C(=O)N[C@@H](C)C(=O)N[C@@H](CCC(N)=O)C(=O)NC(C)(C)C(=O)N[C@@H](CC(=O)O)C(=O)N[C@@H](Cc1ccccc1)C(=O)N[C@H](C(=O)N[C@@H](CC(N)=O)C(=O)N[C@@H](Cc1c[nH]c2ccccc12)C(=O)N[C@@H](CC(C)C)C(=O)N[C@@H](CC(C)C)C(=O)N[C@@H](C)C(=O)N[C@@H](CCC(N)=O)C(=O)NCC(=O)N1CCC[C@H]1C(=O)N[C@@H](CO)C(=O)N[C@@H](CO)C(=O)NCC(=O)N[C@@H](C)C(=O)N1CCC[C@H]1C(=O)N1CCC[C@H]1C(=O)N1CCC[C@H]1C(=O)N[C@@H](CO)C(N)=O)C(C)C) [Example 8]	0.0268 nM	> 5000 nM	295 nM
Y[dA]EGTFISDYSILLDKK([AEEA-AEEA-γGlu-C20 diacid])AQQDFVNWLLAGGPSSGAPPPS-NH2 (N-terminus assumed; SMILES CC[C@H](C)[C@H](NC(=O)[C@H](CO)NC(=O)[C@H](Cc1ccc(O)cc1)NC(=O)[C@H](CC(=O)O)NC(=O)[C@H](CO)NC(=O)[C@@H](NC(=O)[C@H](Cc1ccccc1)NC(=O)[C@@H](NC(=O)CNC(=O)[C@H](CCC(=O)O)NC(=O)[C@@H](C)NC(=O)[C@@H](N)Cc1ccc(O)cc1)[C@@H](C)O)[C@@H](C)CC)C(=O)N[C@@H](CC(C)C)C(=O)N[C@@H](CC(C)C)C(=O)N[C@@H](CC(=O)O)C(=O)N[C@@H](CCCCN)C(=O)N[C@@H](CCCCNC(=O)COCCOCCNC(=O)COCCOCCNC(=O)CC[C@H](NC(=O)CCCCCCCCCCCCCCCCCCC(=O)O)C(=O)O)C(=O)N[C@@H](C)C(=O)N[C@@H](CCC(N)=O)C(=O)N[C@@H](CCC(N)=O)C(=O)N[C@@H](CC(=O)O)C(=O)N[C@@H](Cc1ccccc1)C(=O)N[C@H](C(=O)N[C@@H](CC(N)=O)C(=O)N[C@@H](Cc1c[nH]c2ccccc12)C(=O)N[C@@H](CC(C)C)C(=O)N[C@@H](CC(C)C)C(=O)N[C@@H](C)C(=O)NCC(=O)NCC(=O)N1CCC[C@H]1C(=O)N[C@@H](CO)C(=O)N[C@@H](CO)C(=O)NCC(=O)N[C@@H](C)C(=O)N1CCC[C@H]1C(=O)N1CCC[C@H]1C(=O)N1CCC[C@H]1C(=O)N[C@@H](CO)C(N)=O)C(C)C) [Example 12]	0.0911 nM	> 100 nM	> 5000 nM
Y[dA]EGTFISDYSILLDKK([AEEA-AEEA-γGlu-C20 diacid])AQQDFVNWLLAQGPSSGAPPPS-NH2 (N-terminus assumed; SMILES CC[C@H](C)[C@H](NC(=O)[C@H](CO)NC(=O)[C@H](Cc1ccc(O)cc1)NC(=O)[C@H](CC(=O)O)NC(=O)[C@H](CO)NC(=O)[C@@H](NC(=O)[C@H](Cc1ccccc1)NC(=O)[C@@H](NC(=O)CNC(=O)[C@H](CCC(=O)O)NC(=O)[C@@H](C)NC(=O)[C@@H](N)Cc1ccc(O)cc1)[C@@H](C)O)[C@@H](C)CC)C(=O)N[C@@H](CC(C)C)C(=O)N[C@@H](CC(C)C)C(=O)N[C@@H](CC(=O)O)C(=O)N[C@@H](CCCCN)C(=O)N[C@@H](CCCCNC(=O)COCCOCCNC(=O)COCCOCCNC(=O)CC[C@H](NC(=O)CCCCCCCCCCCCCCCCCCC(=O)O)C(=O)O)C(=O)N[C@@H](C)C(=O)N[C@@H](CCC(N)=O)C(=O)N[C@@H](CCC(N)=O)C(=O)N[C@@H](CC(=O)O)C(=O)N[C@@H](Cc1ccccc1)C(=O)N[C@H](C(=O)N[C@@H](CC(N)=O)C(=O)N[C@@H](Cc1c[nH]c2ccccc12)C(=O)N[C@@H](CC(C)C)C(=O)N[C@@H](CC(C)C)C(=O)N[C@@H](C)C(=O)N[C@@H](CCC(N)=O)C(=O)NCC(=O)N1CCC[C@H]1C(=O)N[C@@H](CO)C(=O)N[C@@H](CO)C(=O)NCC(=O)N[C@@H](C)C(=O)N1CCC[C@H]1C(=O)N1CCC[C@H]1C(=O)N1CCC[C@H]1C(=O)N[C@@H](CO)C(N)=O)C(C)C) [Example 11]	0.0738 nM	> 100 nM	445 nM
Y[dA]EGTFISDYSILLDKK([AEEA-AEEA-γGlu-C20 diacid])HQQDFVNWLLAGGPSSGAPPPS-NH2 (N-terminus assumed; SMILES CC[C@H](C)[C@H](NC(=O)[C@H](CO)NC(=O)[C@H](Cc1ccc(O)cc1)NC(=O)[C@H](CC(=O)O)NC(=O)[C@H](CO)NC(=O)[C@@H](NC(=O)[C@H](Cc1ccccc1)NC(=O)[C@@H](NC(=O)CNC(=O)[C@H](CCC(=O)O)NC(=O)[C@@H](C)NC(=O)[C@@H](N)Cc1ccc(O)cc1)[C@@H](C)O)[C@@H](C)CC)C(=O)N[C@@H](CC(C)C)C(=O)N[C@@H](CC(C)C)C(=O)N[C@@H](CC(=O)O)C(=O)N[C@@H](CCCCN)C(=O)N[C@@H](CCCCNC(=O)COCCOCCNC(=O)COCCOCCNC(=O)CC[C@H](NC(=O)CCCCCCCCCCCCCCCCCCC(=O)O)C(=O)O)C(=O)N[C@@H](Cc1c[nH]cn1)C(=O)N[C@@H](CCC(N)=O)C(=O)N[C@@H](CCC(N)=O)C(=O)N[C@@H](CC(=O)O)C(=O)N[C@@H](Cc1ccccc1)C(=O)N[C@H](C(=O)N[C@@H](CC(N)=O)C(=O)N[C@@H](Cc1c[nH]c2ccccc12)C(=O)N[C@@H](CC(C)C)C(=O)N[C@@H](CC(C)C)C(=O)N[C@@H](C)C(=O)NCC(=O)NCC(=O)N1CCC[C@H]1C(=O)N[C@@H](CO)C(=O)N[C@@H](CO)C(=O)NCC(=O)N[C@@H](C)C(=O)N1CCC[C@H]1C(=O)N1CCC[C@H]1C(=O)N1CCC[C@H]1C(=O)N[C@@H](CO)C(N)=O)C(C)C) [Example 10]	0.611 nM	> 100 nM	> 5000 nM
